According to US20170087188A1, “WNT INDUCED MOTILITY AND ENHANCED ENGRAFTMENT OF CELLS” (OTTAWA HOSPITAL RESEARCH INSTITUTE, priority 2014, published 2017):
Entries after “also recorded” stand apart in the source; their conditions may differ.

Key:
[1] = tested on: mdx mice; test: Transplantation of Wnt-treated mouse primary myoblasts into mdx mice; format: in vivo; conditions: treated zsGreen+ myoblasts; three weeks following transplantation; compared to Veh.
Method: In a clinical setting, freshly isolated satellite cells are often not readily available. Therefore, the effect of 3 h Wnt7a loading on cultured primary mouse myoblasts that were subsequently transplanted into injured muscles of immunosuppressed mdx mice (FIG. S5 A) was examined. After transplantation of 100,000 cells, the number of dystrophin-expressing myofibers was increased by 72% in muscles that were injected with Wnt7a treated myoblasts (FIG. 13B). […] In addition, the mean maximal cluster distance (dispersion) increased from 1.5 mm for Veh., to 2.0 mm for Wnt7a (FIG. 13D).
Transplantation of zsGreen-expressing satellite cells or myoblasts into mdx mice was performed as previously described (Bentzinger et al., 2013c). Before transplantation the cells were treated for 3 h with Wnt7a, Wnt5a, or Wnt3a (R&D Systems) at a concentration of 50 ng/mL for freshly isolated satellite cells or with 100 ng/mL for cultured cells. Myoblasts expressing tdTomato were transplanted into uninjured muscles of C57BL/6 mice that were implanted with an osmotic pump (Alzet) delivering FK506 (Sigma) at 2.5 mg/kg/day 3 days prior to the transplantations. In some experiments, the injection site was marked with blue fluorescent microspheres (2 μm, Life Technologies) that were added at a concentration of 1:100 (vol/vol) to the cell suspension. 10 μl of the cell-microsphere suspension was injected into the TA of each mouse using a Hamilton syringe.
Muscles frozen in liquid nitrogen were cut into 12 μm cross-sections. Cross-sections and cells were either fixed with ethanol (100%) or 2% PFA for 5 min, permeabilized with 0.1% Triton/0.1 M glycine/PBS for 10 min, blocked with 5% horse serum in PBS for several hours, and incubated with specific primary antibody in blocking buffer overnight at 4° C. Samples were subsequently washed with PBS and stained with appropriate fluorescently labeled secondary antibodies for 1 h at room temperature. After washing with PBS, samples were mounted with Permafluor (Fisher). Antibodies were as follows: chicken anti-GFP (Abcam, ab13970), mouse anti-Pax7 (DSHB), mouse anti-Dystrophin (7A10, DSHB), mouse anti-Rac1 (05-389, Millipore), mouse anti-Tubulin (Sigma, T9026), rabbit anti-Dvl2 (3224, Cell Signaling), rabbit anti-zsGreen (Clontech, 632474), rabbit anti-Laminin (Sigma, L9393), rabbit anti-HA (Millipore, 07-221).

[2] = tested on: mouse primary myoblasts; test: Scratch migration assay, mouse primary myoblasts; format: cell-based
Method: Cellular polarization is indicative of increased motility (de Forges et al., 2012). Scratch assays were used to test whether Wnt7a and Fzd7 polarization affect cell motility. To exclude effects on the localization of cells arising from altered rates of proliferation, cells were treated with Mitomycin-C.
Fzd7 deficient cells migrated 59% less compared to heterozygous myoblasts and expression of Fzd7-Flag in Fzd7 knockout myoblasts restored migration to normal levels (FIG. 2D). […] To investigate whether the stimulation of myoblast migration is dose dependent, different concentrations of Wnt7a and Wnt3a were tested for their effect on migration.
Following plasmid transfection or application of Wnts (R&D Systems), the cells were treated with Mitomycin-C for 2 h (50 μg/mL). Subsequently, the monolayer of cells was scraped in a straight line. The plates were then extensively washed with culture medium and incubated for 24 h before analysis. Analysis was performed using DAPI staining after matching the reference points and enumeration of DAPI-stained nuclei in the scar was performed. Unless otherwise indicated, Wnt7a and Wnt3a were used at a concentration of 100 ng/mL in scratch assays. Monodansylcadaverine (MDC, 30432, Sigma) was used in scratch assays at a concentration of 50 μm.

[3] = tested on: β-catenin signaling; test: TOP-flash luciferase reporter assay in C2C12 cells; format: cell-based; conditions: different concentrations
Method: Different concentrations of Wnt7a were tested to exclude a dose dependent effect on β-catenin signaling, as measured by induction of TOP-flash activity in C2C12 cells.
The UBC-Fzd7-Flag (Fzd7-Flag), CMV-Fzd7-EYFP (Fzd7-YFP), CMV-Fzd3-EYFP (Fzd3-YFP), CMV-EYFP (YFP), CMV-EGFP-Rac1-wt (GFP-Rac1, 12980, Addgene), CMV-EGFP-Rac1-T17N (Rac1-DN, 12982, Addgene), CMV-EGFP-RhoA-T19N (RhoA-DN, 12967, Addgene) and CMV-EGFP-Cdc42-T17N (Cdc42-DN, 12976, Addgene) constructs have been described previously (Bentzinger et al., 2013a; Subauste et al., 2000; von Maltzahn et al., 2011). The Fzd7-tdtomato plasmid was generated by replacing the C-terminal YFP in Fzd7-YFP with tdTomato. For TOP-flash and FOP-flash the TCF reporter plasmid kit (17-285, Millipore) was used with the dual-luciferase reporter assay system (E1960, Promega). For normalization pGL4.74[hRluc/TK] (E6921, Promega) was cotransfected. For TOP-flash and FOP-flash assays the cells were transfected with GenJet lipofection reagent (SL100499, SignaGen). Otherwise, Lipofectamine 2000 (11668019, Life Technologies) was used for transfections.

[4] = tested on: primary myoblasts; test: Proliferation of primary myoblasts over five days; format: cell-based; conditions: 3 h exposure; various concentrations; over 5 days
Method: The proliferation of primary myoblasts following a 3 h exposure to various concentrations of Wnt7a was analyzed to control for the effect being due to changes in the cell cycle status of the transplanted cells.

Molecule | mean maximal cluster distance [1] | number of dystrophin-expressing myofibers [1] | dose dependency of myoblast migration ([2]; different concentrations tested, mouse primary myoblasts) | stimulation of cell migration ([2]; primary mouse myoblasts, 100 ng/mL) | TOP-flash reporter activity [3] | rate of proliferation of primary myoblasts [4]
Wnt5a: Wnt protein (R&D Systems) used as comparison in myoblast transplantation (protein, UniProt P41221 62-380, looked up) Protein Wnt-5a: IIGAQPLCSQLAGLSQGQKKLCHLYQDHMQYIGEGAKTGIKECQYQFRHRRWNCSTVDNTSVFGRVMQIGSRETAFTYAVSAAGVVNAMSRACREGELSTCGCSRAARPKDLPRDWLWGGCGDNIDYGYRFAKEFVDARERERIHAKGSYESARILMNLHNNEAGRRTVYNLADVACKCHGVSGSCSLKTCWLQLADFRKVGDALKEKYDSAAAMRLNSRGKLVQVNSRFNSPTTQDLVYIDPSPDYCVRNESTGSLGTQGRLCNKTSEGMDGCELMCCGRGYDQFKTVQTERCHCKFHWCCYVKCKKCTEIVDQFVCK | no difference; also recorded: Neither the number of dystrophin-expressing myofibers (FIG. 13E) nor the mean maximal cluster distance (FIG. 13F) was changed | no difference; also recorded: Neither the number of dystrophin-expressing myofibers (FIG. 13E) nor the mean maximal cluster distance (FIG. 13F) was changed | – | – | – | –
Wnt3a: unrelated canonical Wnt protein (R&D Systems) used as comparison (protein, UniProt P56704 19-352, looked up) Protein Wnt-3a: SYPIWWSLAVGPQYSSLGSQPILCASIPGLVPKQLRFCRNYVEIMPSVAEGIKIGIQECQHQFRGRRWNCTTVHDSLAIFGPVLDKATRESAFVHAIASAGVAFAVTRSCAEGTAAICGCSSRHQGSPGKGWKWGGCSEDIEFGGMVSREFADARENRPDARSAMNRHNNEAGRQAIASHMHLKCKCHGLSGSCEVKTCWWSQPDFRAIGDFLKDKYDSASEMVVEKHRESRGWVETLRPRYTYFKVPTERDLVYYEASPNFCEPNPETGSFGTRDRTCNVSSHGIDGCDLLCCGRGHNARAERRREKCRCVFHWCCYVSCQECTRVYDVHTCK | no difference; also recorded: Neither the number of dystrophin-expressing myofibers (FIG. 13E) nor the mean maximal cluster distance (FIG. 13F) was changed | no difference; also recorded: Neither the number of dystrophin-expressing myofibers (FIG. 13E) nor the mean maximal cluster distance (FIG. 13F) was changed | no significant effect at any concentration tested | does not affect cell migration; also recorded: did not stimulate cell migration | dose dependent increase; also recorded: dose dependent response | reduced the proliferation of primary myoblasts
